{
  "source": "patent US20250122242A1",
  "about": "“SELECTION SYSTEMS, PEPTIDES DETERMINED THEREWITH, AND METHODS OF USING SAME” (Wisconsin Alumni Research Foundation, priority 2023, published 2025)",
  "key": {"Aβ42-T7n": {"molecular_target": "Aβ42-T7n (UniProt P00573+P05067)", "sequence (P05067+P00573 fused)": "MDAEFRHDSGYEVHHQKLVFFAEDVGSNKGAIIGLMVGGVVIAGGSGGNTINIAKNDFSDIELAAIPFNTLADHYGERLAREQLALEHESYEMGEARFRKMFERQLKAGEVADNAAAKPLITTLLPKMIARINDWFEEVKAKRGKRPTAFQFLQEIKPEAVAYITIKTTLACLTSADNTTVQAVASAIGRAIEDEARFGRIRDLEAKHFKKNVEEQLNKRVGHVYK", "conditions": "clonal SP encoding the sequence", "from_the_text": "Therefore, we turned to a split-T7 RNA polymerase (T7 RNAP) reporter used to evolve proteins with improved soluble expression.^33 In our new selection, host E. coli express an aggregation-prone protein (APP) fused to the N-terminal half of split-T7 RNAP (T7n). When the APP-T7n fusion is translated, it misfolds due to the APP, preventing T7n from associating with the C-terminal half of split-T7 RNAP (T7c; FIG. 2A). If a SP-encoded inhibitor binds to and prevents APP aggregation, the fused T7n will remain folded and join with T7c to produce full-length T7 RNAP. The reconstituted T7 RNAP then transcribes gIII, which we place under control of the T7 promoter (PT7), producing pill and allowing the SP to reproduce (FIGS. 2A and 2B).\nWe used the SICLOPPS method to biosynthesize cyclic peptides that can be selected in E. coli.^15 In SICLOPPS, a precursor fusion consisting of the C-terminal half of the Ssp DnaE split intein, the peptide sequence to be cyclized, and the N-terminal half of the same split intein undergoes intein splicing after translation to produce head-to-tail cyclized peptides (FIG. 7).\nStrain S206035 was used for plasmid cloning, amplification, and phage assays. Strain S220835 was used for SP cloning and plaque assays. Plasmids and SPs were cloned by USER assembly or blunt-end ligation. Competent cells were prepared and transformed using the TSS method. Phage propagation and plaque assays were performed as previously described.^54 Unless otherwise noted, phage propagation assays used an input of […] phage to infect a 2 mL culture of host cells."}, "Aβ42-GFP": {"system": "Aβ42-GFP", "sequence (P05067 672-713)": "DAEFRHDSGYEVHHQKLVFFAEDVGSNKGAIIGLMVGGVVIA", "experiment": "Aβ42-GFP folding reporter fluorescence assay", "type": "cell-based, E. coli", "conditions": "expressed from plasmid, 0.04 mM IPTG, compared with CKVWQLL (FIG. 3H)", "description": "(§1) Single colonies of S2060s transformed with pBL066c and SICLOPPS plasmid were used to make overnight cultures in 2×YT with maintenance antibiotics. The overnight culture was diluted (1:100) into 1 mL DRM on a 96 deep-well plate (VWR, 75870-796) with maintenance antibiotics and IPTG (0, 0.04, 0.2, or 1 mM). The diluted culture was incubated at 37° C. with shaking for 2.5 h, after which aTc (200 ng/mL) was added. 100 μL of the culture was transferred onto a black clear-bottom 96-well plate (VWR, 89131-680) to measure fluorescence signal 2, 3, 5 h after addition of aTc. GFP fluorescence signal (excitation wavelength=485 nm, emission wavelength=535 nm) was then measured using a Tecan M Plex microplate reader."}, "E. coli": {"system": "E. coli", "experiment": "Growth (OD600) of cells expressing SICLOPPS precursors upon IPTG induction", "conditions": "OD600, IPTG induction (FIG. 9B)", "description": "Data reflects 3 biological replicates plotted as individual values.\nas §1"}},
  "data": [
    {"substance": "CRVYQVL (cyclic; Circular) [cyclo-CRVYQVL]", "values": [
      {"measurement": "phage propagation activity (fitness) on Aβ42-T7n selection", "setting": "Aβ42-T7n", "result": "more modest fitness"},
      {"measurement": "activity in Aβ42-GFP folding reporter assay", "setting": "Aβ42-GFP", "result": "appeared inactive"},
      {"measurement": "effect of construct induction on cell growth", "setting": "E. coli", "result": "greatly decreased cell growth"}
    ]}
  ]
}
